The supplement of paper PMC10567573

B1: ZNF207 (parent)
chain: YQGGPPRPPMGMRPPVMSQGGRY
B2: SCNN1D (parent)
chain: FYRLYQDLETHRLPCTSRCPRPCR

Variants of: B1
Experiment: protein stability index of a GFP-peptide fusion (GPS, HEK-293T) (PSI 1-6); higher = more stable
Conditions: c terminus: native
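Note: lentivirally expressed fusions sorted by FACS into six bins by GFP to DsRed ratio, PSI derived from sequencing read proportions per bin multiplied by bin number.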

Compared with YQGGPPRPPMGMRPPVMSQYGRY [G20Y], YQGGPPRPPMGMRPPVMSQEGRY [G20E] is higher in protein stability index: 1.68 for the first, 2.23 for the second.

Compared with YQGGPPRPPMGMRPPVMSQRGRY [G20R], YQGGPPRPPMGMRPPVMSQKGRY [G20K] is lower in protein stability index: 2.75 for the first, 2.16 for the second.

First: YQGGPPRPPMGMRPPVMSQWGRY [G20W]
Second: YQGGPPRPPMGMRPPVMSQFGRY [G20F]
The protein stability index of the first is higher: 2.46 for the first, 1.88 for the second.

Going from YQGGPPRPPMGMRPPVMSQSGRY [G20S] to YQGGPPRNPMGMRPPVMSQGGRY [P8N], the protein stability index rises from 1.67 to 2.49.

Going from YQGGPPRIPMGMRPPVMSQGGRY [P8I] to YQGGPPRAPMGMRPPVMSQGGRY [P8A], the protein stability index falls from 2.2 to 1.09.

First: YQGGPPRCPMGMRPPVMSQGGRY [P8C]
Second: YQGGPPRHPMGMRPPVMSQGGRY [P8H]
The protein stability index of the first is lower: 1 for the first, 2.98 for the second.

Compared with YQGGPPRVPMGMRPPVMSQGGRY [P8V], YQGGPPRSPMGMRPPVMSQGGRY [P8S] is higher in protein stability index: 1.57 for the first, 1.95 for the second.

First: YQGGPPRKPMGMRPPVMSQGGRY [P8K]
Second: YQGGPPRPPMGMRPPVMSQGGRL [Y23L]
The protein stability index of the first is higher: 2.35 for the first, 1.66 for the second.

Compared with YQGGPPRPPMGMRPPVMSQGGRA [Y23A], YQGGPPRPPMGMRPPVMSQGGRD [Y23D] is higher in protein stability index: 1.98 for the first, 3.11 for the second.

Compared with YQGGPPRPPMGMRPPVMSQGGRP [Y23P], YQGGPPRPPMGMRPPVMSQGGRW [Y23W] is higher in protein stability index: 2.82 for the first, 3.51 for the second.

Compared with YQGGPPRPPMGMRPPVMSQGGRC [Y23C], YQGGPPRPPMGMRPPVMSQGGRS [Y23S] is higher in protein stability index: 1.97 for the first, 2.43 for the second.

Compared with YQGGPPRPPMGMRPPVMSQGGRT [Y23T], YQGGPPRPPMGMRPPVMSQGGRE [Y23E] is higher in protein stability index: 1.9 for the first, 2.37 for the second.

Going from YQGGPPRPPMGMRPPVMSQGGRV [Y23V] to YQGGPPRPPMGMRPPVMSQGGRM [Y23M], the protein stability index rises from 1.5 to 2.44.

Going from YQGGPPRPPMGMRPPWMSQGGRY [V16W] to YQGGPPRPPMGMRPPCMSQGGRY [V16C], the protein stability index rises from 1.75 to 2.44.

Going from YQGGPPRPPMGMRPPNMSQGGRY [V16N] to YQGGPPRPPMGMRPPKMSQGGRY [V16K], the protein stability index rises from 2.65 to 2.93.

Going from YQGGPPRPPMGMRPPHMSQGGRY [V16H] to YQGGPPRPPMGMRPPFMSQGGRY [V16F], the protein stability index falls from 2.71 to 2.18.

Going from YQGGPPRPPMGMRPPIMSQGGRY [V16I] to YQGGPPRPPMGMRPPVMSQGGKY [R22K], the protein stability index falls from 2.03 to 1.99.

Going from YQGGPPRPPMGMRPPVMSQGGTY [R22T] to YQGGPPRPPMGMRPPVMSQGGFY [R22F], the protein stability index falls from 1.89 to 1.21.

Compared with YQGGPPRPPMGMRPPVMSQGGHY [R22H], YQGGPPRPPMGMRPPVMSQGGSY [R22S] is lower in protein stability index: 1.91 for the first, 1.7 for the second.

First: YQGGPPRPPMGMRPPVMSQGGQY [R22Q]
Second: YQGGPPRPPMGMRPPVMSQGGMY [R22M]
The protein stability index of the first is lower: 1.43 for the first, 1.69 for the second.

For YQGGPPRPPMGMRPPVMSQGGDY [R22D], the protein stability index was 1.89.

Variants of: B2
Experiment: as above
Conditions: c terminus: a fixed tail appended

Compared with FYPLYQDLETHRLPCTSRCPRPCR [R3P], FYFLYQDLETHRLPCTSRCPRPCR [R3F] is lower in protein stability index: 3.04 for the first, 2.32 for the second.

Going from FYYLYQDLETHRLPCTSRCPRPCR [R3Y] to FYRLYQDLETHRLPCTSRQPRPCR [C19Q], the protein stability index rises from 1.66 to 2.59.

Going from FYRLYNDLETHRLPCTSRCPRPCR [Q6N] to FYRLYSDLETHRLPCTSRCPRPCR [Q6S], the protein stability index falls from 2.28 to 2.23.

Going from FYRLYYDLETHRLPCTSRCPRPCR [Q6Y] to FYRLYMDLETHRLPCTSRCPRPCR [Q6M], the protein stability index rises from 1.52 to 1.91.

First: FYRLYQDLETHRLPPTSRCPRPCR [C15P]
Second: IYRLYQDLETHRLPCTSRCPRPCR [F1I]
The protein stability index of the first is lower: 1.85 for the first, 2.12 for the second.

Going from KYRLYQDLETHRLPCTSRCPRPCR [F1K] to FYRLYQKLETHRLPCTSRCPRPCR [D7K], the protein stability index falls from 3.37 to 2.08.

First: FYRLYQFLETHRLPCTSRCPRPCR [D7F]
Second: FYRLYQHLETHRLPCTSRCPRPCR [D7H]
The protein stability index of the first is higher: 2.22 for the first, 1.5 for the second.

Compared with FYRLYQWLETHRLPCTSRCPRPCR [D7W], FYRLYQSLETHRLPCTSRCPRPCR [D7S] is lower in protein stability index: 3 for the first, 1.98 for the second.

First: FYRLYQDLETHRLPCTSRCPRPCN [R24N]
Second: FYRLYQDLETHRLPCTSRCPRPCA [R24A]
The protein stability index of the first is lower: 1.61 for the first, 2.2 for the second.

Going from FNRLYQDLETHRLPCTSRCPRPCR [Y2N] to FSRLYQDLETHRLPCTSRCPRPCR [Y2S], the protein stability index falls from 3.63 to 2.49.

Going from FYRLYQDLETHRLRCTSRCPRPCR [P14R] to FYRLYQDLETHRLCCTSRCPRPCR [P14C], the protein stability index falls from 2.09 to 1.44.

Going from FYRLYQDLETHRLNCTSRCPRPCR [P14N] to FYRLYQDLETHRLLCTSRCPRPCR [P14L], the protein stability index rises from 1.96 to 3.27.

First: FYRPYQDLETHRLPCTSRCPRPCR [L4P]
Second: FYRWYQDLETHRLPCTSRCPRPCR [L4W]
The protein stability index of the first is higher: 3.47 for the first, 2.59 for the second.

Compared with FYRKYQDLETHRLPCTSRCPRPCR [L4K], FYRDYQDLETHRLPCTSRCPRPCR [L4D] is lower in protein stability index: 3.68 for the first, 2.69 for the second.

Going from FYRRYQDLETHRLPCTSRCPRPCR [L4R] to FYRLYQDLETHRRPCTSRCPRPCR [L13R], the protein stability index rises from 2.49 to 3.39.

First: FYRLYQDLETHRWPCTSRCPRPCR [L13W]
Second: FYRLYQDLETHRLPCTSHCPRPCR [R18H]
The protein stability index of the first is higher: 2.21 for the first, 1.91 for the second.

Compared with FYRLYQDLETHRLPCTSPCPRPCR [R18P], FYRLYQDLETHRLPCTSICPRPCR [R18I] is lower in protein stability index: 1.74 for the first, 1.15 for the second.

Compared with FYRLYQDLETHELPCTSRCPRPCR [R12E], FYRLYQDLETHTLPCTSRCPRPCR [R12T] is lower in protein stability index: 2.5 for the first, 2.1 for the second.

First: FYRLYQDLEDHRLPCTSRCPRPCR [T10D]
Second: FYRLYQDLEWHRLPCTSRCPRPCR [T10W]
The protein stability index of the first is higher: 2.82 for the first, 2.05 for the second.

Compared with FYRLYQDLEGHRLPCTSRCPRPCR [T10G], FYRLYQDLEEHRLPCTSRCPRPCR [T10E] is higher in protein stability index: 2.19 for the first, 2.31 for the second.

Going from FYRLYQDLEHHRLPCTSRCPRPCR [T10H] to FYRLYQDLETHRLPCTCRCPRPCR [S17C], the protein stability index falls from 2.34 to 1.65.

Compared with FYRLYQDLETHRLPCTARCPRPCR [S17A], FYRLYQDLETQRLPCTSRCPRPCR [H11Q] is lower in protein stability index: 2.46 for the first, 2.37 for the second.

First: FYRLTQDLETHRLPCTSRCPRPCR [Y5T]
Second: FYRLYQDLETHRLPCTSRCLRPCR [P20L]
The protein stability index of the first is higher: 2.8 for the first, 2.27 for the second.

Compared with FYRLYQDLETHRLPCTSRCNRPCR [P20N], FYRLYQDLETHRLPCTSRCPRPER [C23E] is higher in protein stability index: 2.13 for the first, 2.43 for the second.

First: FYRLYQDLETHRLPCTSRCPRPFR [C23F]
Second: FYRLYQDLETHRLPCTSRCPRPQR [C23Q]
The protein stability index of the first is lower: 1.71 for the first, 2.42 for the second.

Compared with FYRLYQDLETHRLPCTSRCPQPCR [R21Q], FYRLYQDLETHRLPCTSRCPHPCR [R21H] is higher in protein stability index: 3.16 for the first, 3.38 for the second.

Compared with FYRLYQDLETHRLPCRSRCPRPCR [T16R], FYRLYQDDETHRLPCTSRCPRPCR [L8D] is higher in protein stability index: 1.46 for the first, 2.79 for the second.

FYRLYQDMETHRLPCTSRCPRPCR [L8M] showed a protein stability index of 2.02.
